{
  "source": "paper PMC5702617",
  "about": "“Novel peptide probes to assess the tensional state of fibronectin fibers in cancer” (Nature Communications, 2017)",
  "key": {"[1]": {"biological_target": "Fn fibers in PC-3 xenograft tumor tissue of CD1 nude mice (not stated (human PC-3 xenograft in CD1 nude mouse)) (UniProt P11276)", "sequence (P11276 33-2477)": "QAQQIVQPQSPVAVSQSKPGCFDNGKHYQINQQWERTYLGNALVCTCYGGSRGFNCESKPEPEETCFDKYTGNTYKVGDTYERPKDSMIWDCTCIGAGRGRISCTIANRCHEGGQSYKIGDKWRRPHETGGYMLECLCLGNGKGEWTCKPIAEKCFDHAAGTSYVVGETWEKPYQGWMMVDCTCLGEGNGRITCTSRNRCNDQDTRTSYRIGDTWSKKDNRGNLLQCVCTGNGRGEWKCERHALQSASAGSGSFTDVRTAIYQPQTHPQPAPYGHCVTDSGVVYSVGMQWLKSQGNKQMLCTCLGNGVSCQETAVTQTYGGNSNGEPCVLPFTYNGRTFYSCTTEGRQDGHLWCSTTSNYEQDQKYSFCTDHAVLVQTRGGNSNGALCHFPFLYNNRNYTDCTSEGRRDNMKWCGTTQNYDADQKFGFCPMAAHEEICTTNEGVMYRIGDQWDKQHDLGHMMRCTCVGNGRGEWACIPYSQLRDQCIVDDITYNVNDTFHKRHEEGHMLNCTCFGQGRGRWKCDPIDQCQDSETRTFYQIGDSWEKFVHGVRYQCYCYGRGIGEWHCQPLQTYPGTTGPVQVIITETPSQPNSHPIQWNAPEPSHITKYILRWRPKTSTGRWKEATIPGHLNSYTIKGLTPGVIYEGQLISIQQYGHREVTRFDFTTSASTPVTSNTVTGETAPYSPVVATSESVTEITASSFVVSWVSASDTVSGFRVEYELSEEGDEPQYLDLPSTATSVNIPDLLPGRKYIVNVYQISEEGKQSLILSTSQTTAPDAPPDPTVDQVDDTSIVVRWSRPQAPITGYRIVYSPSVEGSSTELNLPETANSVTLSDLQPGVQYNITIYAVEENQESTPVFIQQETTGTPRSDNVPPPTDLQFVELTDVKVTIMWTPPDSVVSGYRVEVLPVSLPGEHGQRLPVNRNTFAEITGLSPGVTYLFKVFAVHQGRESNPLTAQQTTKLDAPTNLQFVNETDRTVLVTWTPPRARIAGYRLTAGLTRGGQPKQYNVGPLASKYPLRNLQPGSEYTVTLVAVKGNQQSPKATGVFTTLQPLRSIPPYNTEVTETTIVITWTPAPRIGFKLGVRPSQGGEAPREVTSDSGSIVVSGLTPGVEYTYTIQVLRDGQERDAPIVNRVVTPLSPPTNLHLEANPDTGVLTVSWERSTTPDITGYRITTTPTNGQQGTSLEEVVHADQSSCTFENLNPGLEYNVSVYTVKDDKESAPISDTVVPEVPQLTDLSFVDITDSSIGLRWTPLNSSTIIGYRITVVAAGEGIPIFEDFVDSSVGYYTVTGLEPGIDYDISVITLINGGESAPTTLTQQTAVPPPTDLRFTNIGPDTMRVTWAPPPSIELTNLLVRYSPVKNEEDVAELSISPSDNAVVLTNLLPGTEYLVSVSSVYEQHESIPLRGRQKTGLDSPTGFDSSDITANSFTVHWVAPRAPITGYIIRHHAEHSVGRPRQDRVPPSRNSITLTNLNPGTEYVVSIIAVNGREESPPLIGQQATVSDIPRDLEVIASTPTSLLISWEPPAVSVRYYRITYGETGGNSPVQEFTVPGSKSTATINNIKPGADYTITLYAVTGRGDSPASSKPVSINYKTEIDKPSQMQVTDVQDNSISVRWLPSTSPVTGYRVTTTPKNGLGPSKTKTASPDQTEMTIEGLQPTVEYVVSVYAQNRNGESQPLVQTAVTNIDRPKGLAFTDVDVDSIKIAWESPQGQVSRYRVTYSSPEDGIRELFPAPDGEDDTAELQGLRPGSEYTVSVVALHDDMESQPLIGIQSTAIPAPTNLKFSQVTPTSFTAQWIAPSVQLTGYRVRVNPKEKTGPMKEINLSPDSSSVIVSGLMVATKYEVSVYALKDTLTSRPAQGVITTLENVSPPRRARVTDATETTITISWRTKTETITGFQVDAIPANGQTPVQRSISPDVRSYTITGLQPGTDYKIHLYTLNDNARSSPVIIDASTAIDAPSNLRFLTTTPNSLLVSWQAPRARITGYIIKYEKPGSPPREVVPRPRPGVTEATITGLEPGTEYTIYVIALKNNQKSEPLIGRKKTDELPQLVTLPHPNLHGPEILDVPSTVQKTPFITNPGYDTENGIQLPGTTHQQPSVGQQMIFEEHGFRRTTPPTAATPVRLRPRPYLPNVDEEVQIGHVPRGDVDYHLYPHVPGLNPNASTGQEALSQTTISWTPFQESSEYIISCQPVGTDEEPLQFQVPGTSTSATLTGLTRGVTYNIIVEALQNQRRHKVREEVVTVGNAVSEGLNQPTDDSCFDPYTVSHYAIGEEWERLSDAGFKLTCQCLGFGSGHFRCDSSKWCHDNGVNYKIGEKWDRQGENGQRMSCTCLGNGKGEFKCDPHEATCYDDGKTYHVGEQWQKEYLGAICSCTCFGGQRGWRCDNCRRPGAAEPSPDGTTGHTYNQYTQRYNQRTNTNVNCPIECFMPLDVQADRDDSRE"}, "[2]": {"biological_target": "Fn fibers in PC-3 xenograft tumor tissue of CD1 nude mice (not stated (human PC-3 xenograft in CD1 nude mouse)) (UniProt P11276)", "remark": "listed apart in the source"}, "[3]": {"biological_target": "T1, fibronectin isolated from human plasma (human, UniProt P02751 32-2477, in the fibers 5% of the protein was Cy5-labeled (Cy5-maleimide on the cryptic cysteines at FnIII7 and FnIII15))", "test": "fluorescence polarisation; anisotropy titration; 100 nM Alexa-488 labeled peptide in PBS, Fn titrated from 0 to 1.4 μM, 20 °C; one-site-binding model; three independent measurements", "conditions": "both partners purified"}, "[4]": {"biological_target": "T1, fibronectin isolated from human plasma", "test": "single Fn fiber binding assay (confocal microscopy, intensity ratio peptide-Alexa488 / Fn-Cy5); Fn fibers (95% unlabeled, 5% Cy5-labeled) manually pulled onto a silicone sheet and relaxed to about 7% strain; blocked with BSA; varying concentrations of peptide for 1 h, washed, imaged; ratio at 10 μM set to 1", "conditions": "both partners purified"}},
  "note": "No end group written: not given here.",
  "data": [
    {"molecule": "^natIn-FnBPA5 (cold labeled) / ^111In-FnBPA5 (peptide)", "values": [
      {"measurement": "tumor uptake of ^111In-FnBPA5 in PC-3-bearing mice, biodistribution at 1, 4, 24 and 96 h p.i. (maximum at 1 h p.i.)", "setting": "[1]", "result": 4.74, "unit": "% IA per g"},
      {"measurement": "change of ^111In-FnBPA5 uptake in the liver 4 h p.i. after pre-injection of a 10-fold excess of unlabeled FnBPA5 (24 nmol)", "setting": "[2]", "result": -58.2, "unit": "%"},
      {"measurement": "change of ^111In-FnBPA5 uptake in the tumor 4 h p.i. after pre-injection of a 10-fold excess of unlabeled FnBPA5 (24 nmol)", "setting": "[2]", "result": -35.6, "unit": "%"}
    ]},
    {"molecule": "{C(Alexa488)}-GQVTTESNLVEFDEESTKGIVTGAVSDHTTVEDTK", "note": "[FnBPA5-Alexa488]", "values": [
      {"measurement": "Kd", "setting": "[3]", "result": 75, "unit": "nM"},
      {"measurement": "Kd", "setting": "[4]", "result": 28, "unit": "nM"}
    ]}
  ]
}
